# Laboratory results: patent US20240383985A1 (published 2024)
# Target: CD33 naturally expressed on HL60 cells (human, UniProt P20138 18-364)
# Assay: FACS
# Sequence of CD33 naturally expressed on HL60 cells (P20138 18-364): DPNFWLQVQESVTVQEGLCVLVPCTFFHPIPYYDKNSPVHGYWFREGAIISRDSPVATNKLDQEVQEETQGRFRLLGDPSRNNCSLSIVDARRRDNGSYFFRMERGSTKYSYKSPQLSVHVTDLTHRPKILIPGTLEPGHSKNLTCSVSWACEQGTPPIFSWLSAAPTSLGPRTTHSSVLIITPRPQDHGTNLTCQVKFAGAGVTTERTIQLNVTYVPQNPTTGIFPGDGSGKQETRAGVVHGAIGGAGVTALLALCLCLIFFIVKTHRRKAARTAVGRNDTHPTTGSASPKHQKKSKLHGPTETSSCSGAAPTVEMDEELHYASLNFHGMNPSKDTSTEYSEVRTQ
row,Binder,EC50 [nM]
1,QP42664412 (antibody) chain 1: DIVMTQSPDSLTVSLGERTTINCKSSQSVLDSSTNKNSLAWYQQKPGQPPKLLLSWASTRESGIPDRFSGSGSGTDFTLTIDSPQPEDSATYYCQQSAHFPITFGQGTRLEIKRTVAAPSVFIFPPSDEQLKSGTASVVCLLNNFYPREAKVQWKVDNALQSGNSQESVTEQDSKDSTYSLSSTLTLSKADYEKHKVYACEVTHQGLSSPVTKSFNRGEC chain 2: QVQLVQSGAEVKKPGESVKVSCKASGYTFTNYGMNWVKQAPGQGLEWMGWINTYTGEPTYADKFQGRVTMTTDTSTSTAYMEIRNLGGDDTAVYYCARWSWSDGYYVYFDYWGQGTSVTVSSASTKGPSVFPLAPSSKSTSGGTAALGCLVKDYFPEPVTVSWNSGALTSGVHTFPAVLQSSGLYSLSSVVTVPSSSLGTQTYICNVNHKPSNTKVDKKVEPKSCDKTHTCPPCPAPEAAGGPSVFLFPPKPKDTLMISRTPEVTCVVVDVSHEDPEVKFNWYVDGVEVHNAKTKPREEQYNSTYRVVSVLTVLHQDWLNGKEYKCKVSNKALPAPIEKTISKAKGQPREPQVYTLPPSREEMTKNQVSLSCAVKGFYPSDIAVEWESNGQPENNYKTTPPVLDSDGSFFLVSKLTVDKSRWQQGNVFSCSVMHEALHNRYTQKSLSLSPGKGGSHHHHHH chain 3: MEFGLSWLFLVAILKGVQCSYVLTQPSSVSVAPGQTATISCGGHNIGSKNVHWYQQRPGQSPVLVIYQDNKRPSGIPERFSGSNSGNTATLTISGTQAMDEADYYCQVWDNYSVLFGGGTKLTVLGGGGSGGGGSGGGGSITCPPPMSVEHADIWVKSYSLYSRERYICNSGFKRKAGTCSLTECVLNKATNVAHWTTPSLKCIR chain 4: not shown,12
2,QP42664415 (antibody) chain 1: DIVMTQSPDSLTVSLGERTTINCKSSQSVLDSSTNKNSLAWYQQKPGQPPKLLLSWASTRESGIPDRFSGSGSGTDFTLTIDSPQPEDSATYYCQQSAHFPITFGQGTRLEIKRTVAAPSVFIFPPSDEQLKSGTASVVCLLNNFYPREAKVQWKVDNALQSGNSQESVTEQDSKDSTYSLSSTLTLSKADYEKHKVYACEVTHQGLSSPVTKSFNRGEC chain 2: QVQLVQSGAEVKKPGESVKVSCKASGYTFTNYGMNWVKQAPGQGLEWMGWINTYTGEPTYADKFQGRVTMTTDTSTSTAYMEIRNLGGDDTAVYYCARWSWSDGYYVYFDYWGQGTSVTVSSASTKGPSVFPLAPSSKSTSGGTAALGCLVKDYFPEPVTVSWNSGALTSGVHTFPAVLQSSGLYSLSSVVTVPSSSLGTQTYICNVNHKPSNTKVDKKVEPKSCDKTHTCPPCPAPEAAGGPSVFLFPPKPKDTLMISRTPEVTCVVVDVSHEDPEVKFNWYVDGVEVHNAKTKPREEQYNSTYRVVSVLTVLHQDWLNGKEYKCKVSNKALPAPIEKTISKAKGQPREPQVYTLPPSREEMTKNQVSLSCAVKGFYPSDIAVEWESNGQPENNYKTTPPVLDSDGSFFLVSKLTVDKSRWQQGNVFSCSVMHEALHNRYTQKSLSLSPGKGGSHHHHHH chain 3: MEFGLSWLFLVAILKGVQCQVQLVQSGAEVKKPGESLKVSCKASGYTFTSYYMHWVRQAPGQGLEWMGIINPSGGSTSYAQKFQGRVTMTRDTSTSTVYMELSSLRSEDTAVYYCARGSAYYYDFADYWGQGTLVTVSSGGGGSGGGGSGGGGSITCPPPMSVEHADIWVKSYSLYSRERYICNSGFKRKAGTCSLTECVLNKATNVAHWTTPSLKCIR chain 4: not shown,14.2
3,QP42664421 (antibody) chain 1: DIVMTQSPDSLTVSLGERTTINCKSSQSVLDSSTNKNSLAWYQQKPGQPPKLLLSWASTRESGIPDRFSGSGSGTDFTLTIDSPQPEDSATYYCQQSAHFPITFGQGTRLEIKRTVAAPSVFIFPPSDEQLKSGTASVVCLLNNFYPREAKVQWKVDNALQSGNSQESVTEQDSKDSTYSLSSTLTLSKADYEKHKVYACEVTHQGLSSPVTKSFNRGEC chain 2: QVQLVQSGAEVKKPGESVKVSCKASGYTFTNYGMNWVKQAPGQGLEWMGWINTYTGEPTYADKFQGRVTMTTDTSTSTAYMEIRNLGGDDTAVYYCARWSWSDGYYVYFDYWGQGTSVTVSSASTKGPSVFPLAPSSKSTSGGTAALGCLVKDYFPEPVTVSWNSGALTSGVHTFPAVLQSSGLYSLSSVVTVPSSSLGTQTYICNVNHKPSNTKVDKKVEPKSCDKTHTCPPCPAPEAAGGPSVFLFPPKPKDTLMISRTPEVTCVVVDVSHEDPEVKFNWYVDGVEVHNAKTKPREEQYNSTYRVVSVLTVLHQDWLNGKEYKCKVSNKALPAPIEKTISKAKGQPREPQVYTLPPSREEMTKNQVSLSCAVKGFYPSDIAVEWESNGQPENNYKTTPPVLDSDGSFFLVSKLTVDKSRWQQGNVFSCSVMHEALHNRYTQKSLSLSPGKGGSHHHHHH chain 3: MEFGLSWLFLVAILKGVQCITCPPPMSVEHADIWVKSYSLYSRERYICNSGFKRKAGTCSLTECVLNKATNVAHWTTPSLKCIRGGGSGGGGGGGGSSYVLTQPSSVSVAPGQTATISCGGHNIGSKNVHWYQQRPGQSPVLVIYQDNKRPSGIPERFSGSNSGNTATLTISGTQAMDEADYYCQVWDNYSVLFGGGTKLTVL chain 4: not shown,11.6

# The next binders have a lower EC50 than those just listed; values first:
row,EC50 [nM],Binder
1,8.39,QP42664400 (antibody) chain 1: DIVMTQSPDSLTVSLGERTTINCKSSQSVLDSSTNKNSLAWYQQKPGQPPKLLLSWASTRESGIPDRFSGSGSGTDFTLTIDSPQPEDSATYYCQQSAHFPITFGQGTRLEIKRTVAAPSVFIFPPSDEQLKSGTASVVCLLNNFYPREAKVQWKVDNALQSGNSQESVTEQDSKDSTYSLSSTLTLSKADYEKHKVYACEVTHQGLSSPVTKSFNRGEC chain 2: QVQLVQSGAEVKKPGESVKVSCKASGYTFTNYGMNWVKQAPGQGLEWMGWINTYTGEPTYADKFQGRVTMTTDTSTSTAYMEIRNLGGDDTAVYYCARWSWSDGYYVYFDYWGQGTSVTVSSASTKGPSVFPLAPSSKSTSGGTAALGCLVKDYFPEPVTVSWNSGALTSGVHTFPAVLQSSGLYSLSSVVTVPSSSLGTQTYICNVNHKPSNTKVDKKVEPKSCDKTHTCPPCPAPEAAGGPSVFLFPPKPKDTLMISRTPEVTCVVVDVSHEDPEVKFNWYVDGVEVHNAKTKPREEQYNSTYRVVSVLTVLHQDWLNGKEYKCKVSNKALPAPIEKTISKAKGQPREPQVYTLPPSREEMTKNQVSLSCAVKGFYPSDIAVEWESNGQPENNYKTTPPVLDSDGSFFLVSKLTVDKSRWQQGNVFSCSVMHEALHNRYTQKSLSLSPGKGGSHHHHHH chain 3: not shown chain 4: not shown
2,2.27,QP42664269 (antibody) chain 1: DIVMTQSPDSLTVSLGERTTINCKSSQSVLDSSTNKNSLAWYQQKPGQPPKLLLSWASTRESGIPDRFSGSGSGTDFTLTIDSPQPEDSATYYCQQSAHFPITFGQGTRLEIKRTVAAPSVFIFPPSDEQLKSGTASVVCLLNNFYPREAKVQWKVDNALQSGNSQESVTEQDSKDSTYSLSSTLTLSKADYEKHKVYACEVTHQGLSSPVTKSFNRGEC chain 2: QVQLVQSGAEVKKPGESVKVSCKASGYTFTNYGMNWVKQAPGQGLEWMGWINTYTGEPTYADKFQGRVTMTTDTSTSTAYMEIRNLGGDDTAVYYCARWSWSDGYYVYFDYWGQGTSVTVSSASTKGPSVFPLAPSSKSTSGGTAALGCLVKDYFPEPVTVSWNSGALTSGVHTFPAVLQSSGLYSLSSVVTVPSSSLGTQTYICNVNHKPSNTKVDKKVEPKSCDKTHTCPPCPAPEAAGGPSVFLFPPKPKDTLMISRTPEVTCVVVDVSHEDPEVKFNWYVDGVEVHNAKTKPREEQYNSTYRVVSVLTVLHQDWLNGKEYKCKVSNKALPAPIEKTISKAKGQPREPQVYTLPPSREEMTKNQVSLSCAVKGFYPSDIAVEWESNGQPENNYKTTPPVLDSDGSFFLVSKLTVDKSRWQQGNVFSCSVMHEALHNRYTQKSLSLSPGKGGSHHHHHH chain 3: not shown chain 4: not shown
